Assay results published in paper PMC7949094, “Pantoea stewartii WceF is a glycan biofilm-modifying enzyme with a bacteriophage tailspike-like fold” (The Journal of Biological Chemistry, 2021).

Legend:
SDS-PAGE without heating = target: the molecule itself; experiment: SDS-PAGE without heating
[1] = target: the molecule itself; experiment: SDS-PAGE without heating; purified HK620TSP and P22TSP in 2% (w/v) SDS, with or without heating for 5 min
[2] = target: the molecule itself; experiment: SEC; size-exclusion chromatography of purified WceF (Fig. S2); conditions not shown

B1: bacteriophage HK620 tailspike protein (natural protein)
chain: DPDQFRAIIESPEGAGHVGYQYRRNTGSTMRMVSDVLDERVSLWDFHCDPSGNVIQPGPNVDSRQYLQAAIDYVSSNGGGTITIPAGYTWYLGSYGVGGIAGHSGIIQLRSNVNLNIEGRIHLSPFFDLKPFQVFVGFDNGDPASSGNLENCHIYGHGVVDFGGYEFGASSQLRNGVAFGRSYNCSVTGITFQNGDVTWAITLGWNGYGSNCYVRKCRFINLVNSSVNADHSTVYVNCPYSGVESCYFSMSSSFARNIACSVELHQHDTFYRGSTVNGYCRGAYVVMHAAEAAGAGSYAYNMQVENNIAVIYGQFVILGSDVTATVSGHLNDVIVSGNIVSIGERAAFSAPFGAFIDIGPDNSGASNVQDIQRVLVTGNSFYAPANITDSAAITLRANLNGCTFIANNFDCRYMVYNAPGTTSPVVQNLVWDKSNVIGGTHANQRAGQNLFDMQFASVVNSTIEVQLSCEDLSMFSCILFPASCQLSYSKITVDSAWTKSMSNTAVFEGNQQAGANVYVSYPATVNLTSYNTQGAVPFFSTDTNYAWVTSAYSLSINENLDFSPPATYTNKANGQLVGVGYNEIGGVRSVSVRLMLQRQV
notes: also called HK620TSP; source: purified
B1 was tested, and the “stoichiometry N” value (SDS-PAGE without heating) was 3.

B2: bacteriophage P22 tailspike protein (natural protein)
chain: YDPDQYSIEADKKFKYSVKLSDYPTLQDAASAAVDGLLIDRDYNFYGGETVDFGGKVLTIECKAKFIGDGNLIFTKLGKGSRIAGVFMESTTTPWVIKPWTDDNQWLTDAAAVVATLKQSKTDGYQPTVSDYVKFPGIETLLPPNAKGQNITSTLEIRECIGVEVHRASGLMAGFLFRGCHFCKMVDANNPSGGKDGIITFENLSGDWGKGNYVIGGRTSYGSVSSAQFLRNNGGFERDGGVIGFTSYRAGESGVKTWQGTVGSTTSRNYNLQFRDSVVIYPVWDGFDLGADTDMNPELDRPGDYPITQYPLHQLPLNHLIDNLLVRGALGVGFGMDGKGMYVSNITVEDCAGSGAYLLTHESVFTNIAIIDTNTKDFQANQIYISGACRVNGLRLIGIRSTDGQGLTIDAPNSTVSGITGMVDPSRINVANLAEEGLGNIRANSFGYDSAAIKLRIHKLSKTLDSGALYSHINGGAGSGSAYTQLTAISGSTPDAVSLKVNHKDCRGAEIPFVPDIASDDFIKDSSCFLPYWENNSTSLKALVKKPNGELVRLTLATL
notes: also called P22TSP; source: purified
B2 was tested, and the “stoichiometry N” value [1] was 3.

B3: Pantoea stewartii WceF (residues 29-736, lacking the Tat signal peptide) (enzyme)
chain: KNTGLALKSVDATAIPKGDVPILTPENVYAMPPQFWQNFQGKLWIGRAGSDARQPGNQIPVFLRDANGNLAQITQPITLNKGNFDQFVKDNAALIANPSHAMALEDSNGQTVFNIPDVSQPGQAAFSQRLAQPAGYQLIGEIPSVDDLRKTRPLFEGAKIKLKSWHPGLEVGGGEFVGSFQPAQDDQGVIFSGDGFHWRRVVDDYNRLSLFDFGAIADGKTDSAPAIKAMYQWSQQSDQPICVQFPAGTFFVTGCDFGEEQRRFFRISGAMVNFGYFPATTIVSDGQSPFVFEVSARWVEISNLIFNGNTDTKPNRQGLLRNTCPGGQFFRGACLRFNNVGGTALSLLDTLDCKIDQWYASACTGDVIQAGWSGQKKGNWDHSTAIELSNFNAQHCKGGKVLNLPRCSQSLIHNGWIEHCDNPGDISNGQWIIDALSLEDCKNPLIAWHSRLNTRQTNLQSGSWIDNSEQGDRWLSAWEMGSTRVESYGVAIDGSLKYNYLTSRWLLENNTSQPVWYELANLYSPTVGDSWEIEVFGQSQFNNGTDSEPLMNLIDGRNTGGRAVIHVQRKKDHAEASWSAEGSSPVLDVRYVAKTDTDTQVFIRLAGWTPSAAIMIKSTAKDRFVTGRCARVDAKMAKATPDSGSHAAPQRFSLHNGKAGVGANEQGDLLLASRALSADNVDTRKPEGFVSVVINGKTVALPYFAIKA
notes: WceF of Pantoea stewartii subsp. stewartii DSM 30176, amplified from genomic DNA; recombinant construct residues 29-736 without the N-terminal 28 amino acids of the Tat signal peptide (the methods say aa 28-736); residues 34-736 resolved in the electron density; His6 tag followed by a TEV site, cleaved off for the purified protein; The forward primer encodes ...ENLYFQG-AKNTGL, so a glycine …
With B3 the “stoichiometry N” value [2] was 3.
